Assay results as given in patent publication US20250195617A1, “Liquid Pharmaceutical Formulations of CNP Compounds” (Ascendis Pharma Growth Disorders A/S, priority 2022, published 2025).
Bridges are numbered along the chain shown (N, C = ends). Where no end group is shown, it is not given here.

Assay: Storage stability of CNP peptide liquid formulations (F33-45), content and purity by RP-HPLC/MS
Format: physicochemical
Settings: acetate buffer, 5° C., 6 months, LC-MS
Description: All excipient stock solutions, except for phenol and m-cresol, were prepared by combining the required excipients in a volumetric flask and filling it up to 90% of the desired volume with water. The pH of the stock solutions was adjusted using 1 M NaOH solution as required and the volume adjusted to the desired volume with water. The stock solutions were filtered through a 0.2 μm PVDF-filter. Stock solutions of phenol (1.75%) and m-cresol (1.05%) were prepared by adding the preservative to the respective excipient stock solution after filtration. Next, the required amount of CNP was dissolved in the required amount of the desired excipient stock solution and the pH was checked and adjusted if needed with 1 M NaOH. The formulations were filtered through a 0.22 μm PVDF filter and the respective preservative stock solution was added. The formulations were aliquoted ready for incubation.
RP-HPLC/MS to determine the content and purity of CNP (F33-45): Mobile phase A was composed of 0.05% aqueous TFA (v/v) and mobile phase B was composed of 0.04% TFA (v/v) in acetonitrile. A Waters Acquity CSH C18, 130 Å, 1.7 μm, 2.1×100 mm column was used. Flow rate was set to 0.3 ml/min, detection was at a wavelength of 215 nm, the column running temperature was 65° C. and the sample injection load was approx. 3 μg CNP-38 eq. (20 μL of a 0.135 mg/ml sample). Samples were diluted to 0.135 mg/mL with dilution buffer (10 mM succinic acid, 84 g/l trehalose dihydrate, adjusted to pH 5 with 1M Tris). For LCMS the HPLC system was coupled to an LTQ Orbitrap Discovery XL instrument and ESI-MS was performed in the positive mode. The change in content of the TIM, T3M and T6M was determined by peak area comparison to the TO sample. For determination of the purity, all peaks higher than the LOQ (0.10%) and not present in the blank were integrated.
The influence of the buffering agent, pH, tonicity agent, detergent, and preservative on the stability of CNP-38 was evaluated. For this purpose, nine formulations of CNP-38 were prepared at a concentration of 2 mg/mL and incubated for 6 months (Table 16). One formulation each at pH 4.5 (F33), pH 5.0 (F34) and pH 4.0 (F35) in acetate buffer were prepared. L-methionine was used to prevent the oxidation of the methionine residue in the peptide, trehalose dihydrate was used as a tonicity or isotonicity agent, Poloxamer 188 as a detergent and m-cresol as a preservative. Another formulation at pH 4.5 containing the same excipients was prepared, in which trehalose was switched to mannitol (F37). […] The formulations were incubated at 5° C. To evaluate whether acetate adducts are formed in acetate buffer, the same formulation as in F33 was incubated at accelerated conditions at 25° C. (F33, 25° C.). […]

| Sequence | formation of acetylated species |
| --- | --- |
| DLRVDTKSRAAWARLLQEHPNARKYKGANKKGLSKGCFGLKLDRIGSMSGLGC (disulfide 37-53; listed as Homo sapiens) [CNP-53] | No acetylated peptides |
| GANKKGLSKGCFGLKLDRIGSMSGLGC (disulfide 11-27) [CNP-27] | No acetylated peptides |
| GLSKGCFGLKLDRIGSMSGLGC [CNP-22] | No acetylated peptides |
| PGQEHPNARKYKGANKKGLSKGCFGLKLDRIGSMSGLGC (disulfide 23-39) [PG-CNP-37] | No acetylated peptides |
